Measurements from publication PMC7884335.

Tests used:
Details in all cases: EMSA: Tris-HCl pH 8.0, MgCl2, NaCl, EDTA, 1 mM DTT, 0.01% NP-40, 50 ug/ml poly[d(I-C)], glycerol (masses given, total volume not stated), room temperature …
[1] = target: T1, His-RegX3 (Msm) (Mycobacterium smegmatis MC2 155) (UniProt Q9F868); assay: EMSA
T1 sequence: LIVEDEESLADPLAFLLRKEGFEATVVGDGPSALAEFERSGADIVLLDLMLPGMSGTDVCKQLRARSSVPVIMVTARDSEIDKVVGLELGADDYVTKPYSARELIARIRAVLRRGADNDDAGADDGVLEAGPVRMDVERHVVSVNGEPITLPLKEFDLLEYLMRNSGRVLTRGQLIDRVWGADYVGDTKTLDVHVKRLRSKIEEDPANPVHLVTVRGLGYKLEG

[2] = system: His-PrpR (Msm) (Mycobacterium smegmatis MC2 155); assay: BLI
[3] = system: His-RegX3 (Msm) (Mycobacterium smegmatis MC2 155); assay: BLI

AGCCAGTGGCGATAAGACACACAGCCTAACCGCGATTCTTACACAGGATTTGCAAAGGCTGGCCCACCAGGACACAAAACTACGCATATACAGGCTCTTTACGTGCCATTAGGGGCCTTATCGCCACTGGCT (double strand) [PprpR-3]
binding [1]: binds

prpR promoter probe for BLI (Msm)
Kd [2]: 0.0532 µM | Kd [3]: 0.165 µM
